First the molecules themselves.
T1: full-length mouse CSF-1R (RefSeq ID NP_001032948) expressed on HEK293F cells (mouse, UniProt P09581 20-977)
T1 construct: whole, on cells
T1 sequence (looked up): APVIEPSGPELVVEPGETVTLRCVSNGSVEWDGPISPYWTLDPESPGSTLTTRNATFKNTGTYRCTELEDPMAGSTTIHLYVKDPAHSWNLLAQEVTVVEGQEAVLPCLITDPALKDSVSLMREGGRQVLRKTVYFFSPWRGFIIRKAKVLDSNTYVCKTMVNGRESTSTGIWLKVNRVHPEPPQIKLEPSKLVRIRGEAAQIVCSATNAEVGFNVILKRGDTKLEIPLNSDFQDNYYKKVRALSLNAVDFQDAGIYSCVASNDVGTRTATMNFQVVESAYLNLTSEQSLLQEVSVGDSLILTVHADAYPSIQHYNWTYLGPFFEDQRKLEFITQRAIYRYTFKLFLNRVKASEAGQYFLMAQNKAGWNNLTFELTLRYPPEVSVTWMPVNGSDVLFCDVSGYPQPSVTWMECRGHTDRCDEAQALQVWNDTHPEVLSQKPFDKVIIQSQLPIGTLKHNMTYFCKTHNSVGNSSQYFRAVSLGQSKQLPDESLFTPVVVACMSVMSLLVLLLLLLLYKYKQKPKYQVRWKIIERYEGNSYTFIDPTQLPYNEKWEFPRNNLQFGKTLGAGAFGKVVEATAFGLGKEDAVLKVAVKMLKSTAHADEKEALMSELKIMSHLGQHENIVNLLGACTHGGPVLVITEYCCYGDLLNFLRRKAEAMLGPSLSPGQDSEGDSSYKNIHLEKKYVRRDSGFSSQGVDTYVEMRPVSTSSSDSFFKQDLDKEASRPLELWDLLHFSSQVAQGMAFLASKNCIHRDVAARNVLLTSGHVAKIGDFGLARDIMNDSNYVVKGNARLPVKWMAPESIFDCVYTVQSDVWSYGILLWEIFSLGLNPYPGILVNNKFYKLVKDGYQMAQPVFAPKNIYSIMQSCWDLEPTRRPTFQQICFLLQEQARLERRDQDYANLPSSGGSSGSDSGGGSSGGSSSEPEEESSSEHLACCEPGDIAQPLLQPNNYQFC

B1: TY21375 (antibody, human IgG4, V domains shown)
VH: EVQLVESGGGLVQPGGSLRLSCAASGFTFSDYAIHWVRQAPGKGLEWVSVISGYGGSTYYADSVKGRFTISRDNSKNTLYLQLNSLRAEDTAVYYCARSGGGGYYFDYWGQGTLVTVSS
VL: DIQLTQSPSSLSASVGDRVTITCRASQGIRSYLAWYQQKPGKAPKLLIYAASSLQSGVPSRFSGSGSGTDFTLTISSLQPEDFATYYCQQSYHWPLTFGQGTKVEIK
notes: Human IgG4 isotype with S241P mutation
B2: TY21373 (antibody, human IgG4, V domains shown)
VH: EVQLVESGGGLVQPGGSLRLSCAASGYSISSGYYWGWIRQAPGKGLEWVSSISGYGSSTYYADSVKGRFTISRDNSKNTLYLQLNSLRAEDTAVYYCARGAYGYFDYWGQGTLVTVSS
VL: DIQLTQSPSSLSASVGDRVTITCPASSSVSYIHWYQQKPGKAPKLLIYDASNLETGVPSRFSGSGSGTDFTLTISSLQPEDFATYYCQQYYPWPWTFGQGTKVEIK
notes: as for B1
B3: TY21371 (antibody, V domains shown)
VH: EVQLVESGGGLVQPGGSLRLSCAASGFTFSGYAIHWVRQAPGKGLEWVSVISGYGSSTYYADSVKGRFTISRDNSKNTLYLQLNSLRAEDTAVYYCARDPGVGGFDVWGQGTLVTVSS
VL: DIQLTQSPSSLSASVGDRVTITCRASQSVRRRFLAWYQQKPGKAPKLLIYDASSLESGVPSRFSGSGSGTDFTLTISSLQPEDFATYYCQQYYPIPRTFGQGTKVEIK
notes: Human IgG4 isotype with S241P mutation (Uniprot P01861); Its IgG1 format is called TY22179 (used only in PK/PD)
B4: TY21372 (antibody, human IgG4, V domains shown)
VH: B3 VH with F27Y, G31D, S57T, D99A, P100S, G101S, V102Y, V107Y
VL: DIQLTQSPSSLSASVGDRVTITCRASQDVSTAVAWYQQKPGKAPKLLIYDASNRATGIPSRFSGSGSGTDFTLTISSLQPEDFATYYCQQYYPWPWTFGQGTKVEIK
notes: as for B1
B5: TY21428 (antibody, human IgG4, V domains shown)
VH: B1 VH with D31N, A33G, S99R, G101L, G102T, G103S, Y104T
VL: DIQLTQSPSSLSASVGDRVTITCRASQSVGSWLAWYQQKPGKAPKLLIYDASNLETGVPSRFSGSGSGTDFTLTISSLQPEDFATYYCQQSYPIPPTFGQGTKVEIK
notes: as for B1
B6: TY21429 (antibody, human IgG4, V domains shown)
VH: EVQLVESGGGLVQPGGSLRLSCAASGYTFSNYAIHWVRQAPGKGLEWVSAISGTGSSTYYADSVKGRFTISRDNSKNTLYLQLNSLRAEDTAVYYCARHSHSRYAFDYWGQGTLVTVSS
VL: B2 VL with P24R, S27H, S28V, V29R, S30T, Y31A, I32V, H33A
notes: as for B1
B7: TY21433 (antibody, human IgG4, V domains shown)
VH: B3 VH with G31N, S57T, D99S, P100T, G101V, V102A, G103T, G104P, D106A, V107Y
VL: B4 VL with R24K, S30R, D50A, N53T, R54L, A55Q, T56S, I58V, Y91S
notes: as for B1
B8: TAC2205 (antibody, human IgG4, V domains shown)
VH: QVQLVQSGAEVKKPGSSVKVSCKASGYTFTDNYMIWVRQAPGQGLEWMGDINPYNGGTTFNQKFKGRVTITADKSTSTAYMELSSLRSEDTAVYYCARESPYFSNLYVMDYWGQGTLVTVSS
VL: EIVLTQSPATLSLSPGERATLSCKASQSVDYDGDNYMNWYQQKPGQAPRLLIYAASNLESGIPARFSGSGSGTDFTLTISSLEPEDFAVYYCHLSNEDLSTFGGGTKVEIK
B9: TAC2188 (antibody, human IgG4, V domains shown)
VH: QVQLVQSGAEVKKPGASVKVSCKASGYTFTSYDISWVRQAPGQGLEWMGVIWTDGGTNYAQKLQGRVTMTTDTSTSTAYMELRSLRSDDTAVYYCARDQRLYFDVWGQGTTVTVSS
VL: DIQMTQSPSSLSASVGDRVTITCRASEDVNTYVSWYQQKPGKAPKLLIYAASNRYTGVPSRFSGSGSGTDFTLTISSLQPEDFATYYCQQSFSYPTFGQGTKLEIK

Where a chain is given by its changes, count along the chain named. Numbers in names are those of the source.

The text below walks through data of patent publication US20230203170A1 (DRAGONBOAT BIOPHARMACEUTICAL SHANGHAI, published 2023).

The first assay deals with T2, full-length human CSF-1R expressed on cells (human, UniProt P07333 20-972).
T2 construct: whole, on cells
The assay is described as follows: flow cytometry on HEK293F cells transiently expressing full-length human CSF-1R (IRES-EGFP vector), IgG at 100 nM, Alexa Fluor 647 anti-human Fc detection. As to the method:
(§1) The specificities of the antibodies were also assessed against human, monkey and mouse CSF-1R that are transiently expressed on the surface of HEK293F cells (FIG. 1). Briefly, HEK293F cells were transfected with a plasmid expressing full-length human, monkey (RefSeq ID XP_015307616) or mouse (RefSeq ID NP_001032948) CSF-1R from a bicistronic IRES vector. EGFP was used to identify the transfected cells. After 40 hrs, the transfected cells were harvested and then washed once with 1% PBSA buffer (1% (w/v) BSA in 1×PBS). Cells were then incubated with various IgGs (each at 100 nM) for 1 hr at room temperature, washed once with pre-chilled 1% PBSA buffer, and incubated with Alexa Fluor® 647 conjugated mouse anti-human Fc antibodies for 30 min on ice. The cells were washed once prior to analysis by flow cytometry (Beckman® CytoFlex).
(In general: Flow cytometry measures light scatter and fluorescence of single cells or particles in a stream.)
For the molecule B1, the “percent of cells in the upper right quadrant (APC Ab binding positive, FITC Ag display positive)” value turned out to be 43.8%.

With B2, the “percent of cells in the upper right quadrant (APC Ab binding positive, FITC Ag display positive)” value is 37.4%.

With B3, the “percent of cells in the upper right quadrant (APC Ab binding positive, FITC Ag display positive)” value turned out to be 40.2%.

Regarding B4, the “percent of cells in the upper right quadrant (APC Ab binding positive, FITC Ag display positive)” value is 37.4%.

In the next assay the target is T3, full-length monkey CSF-1R (RefSeq ID XP_015307616) expressed on HEK293F cells (monkey, UniProt A0A2K5WG90 20-976). The assay can be described thus: flow cytometry on HEK293F cells transiently expressing full-length monkey CSF-1R (IRES-EGFP vector), IgG at 100 nM, Alexa Fluor 647 anti-human Fc detection [Conti.]. As to the method: as §1
T3 sequence (A0A2K5WG90 entry or part of it limits assumed, form in doubt): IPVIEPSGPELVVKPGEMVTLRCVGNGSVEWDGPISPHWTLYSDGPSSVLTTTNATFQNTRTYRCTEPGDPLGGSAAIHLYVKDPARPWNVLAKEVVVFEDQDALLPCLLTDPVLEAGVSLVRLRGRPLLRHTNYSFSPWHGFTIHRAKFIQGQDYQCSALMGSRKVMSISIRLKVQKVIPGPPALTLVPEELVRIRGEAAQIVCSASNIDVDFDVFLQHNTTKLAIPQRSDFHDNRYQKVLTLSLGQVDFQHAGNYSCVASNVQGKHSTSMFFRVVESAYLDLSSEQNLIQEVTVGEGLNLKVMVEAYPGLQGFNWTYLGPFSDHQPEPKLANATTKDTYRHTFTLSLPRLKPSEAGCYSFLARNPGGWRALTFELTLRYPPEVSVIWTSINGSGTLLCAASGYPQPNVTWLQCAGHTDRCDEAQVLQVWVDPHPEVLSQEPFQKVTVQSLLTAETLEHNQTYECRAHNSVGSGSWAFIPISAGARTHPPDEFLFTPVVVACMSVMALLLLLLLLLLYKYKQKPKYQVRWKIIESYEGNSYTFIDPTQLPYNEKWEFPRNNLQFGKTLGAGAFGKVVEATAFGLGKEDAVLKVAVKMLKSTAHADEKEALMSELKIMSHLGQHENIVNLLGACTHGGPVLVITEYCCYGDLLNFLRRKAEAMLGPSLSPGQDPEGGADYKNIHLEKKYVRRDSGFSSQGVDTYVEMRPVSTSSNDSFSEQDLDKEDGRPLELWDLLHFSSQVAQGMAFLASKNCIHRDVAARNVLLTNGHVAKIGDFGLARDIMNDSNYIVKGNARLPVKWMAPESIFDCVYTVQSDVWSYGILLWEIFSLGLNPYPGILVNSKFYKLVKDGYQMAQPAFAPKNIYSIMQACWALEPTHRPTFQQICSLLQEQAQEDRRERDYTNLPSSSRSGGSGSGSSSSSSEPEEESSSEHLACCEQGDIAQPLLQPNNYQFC
Turning to B5, the “percent of cells in the upper right quadrant (APC Ab binding positive, FITC Ag display positive)” value came out at 31.3%.

In the case of B6, the “percent of cells in the upper right quadrant (APC Ab binding positive, FITC Ag display positive)” value amounted to 34.2%.

Another assay addresses T1, full-length mouse CSF-1R (RefSeq ID …). The assay is described as follows: flow cytometry on HEK293F cells transiently expressing full-length mouse CSF-1R (IRES-EGFP vector), Alexa Fluor 647 anti-human Fc detection [Conti.]. The procedure:
as §1
On to B5, for which the binding result is on record as “no binding (tested: 100 nM)”.

As for B6, the binding result was “no binding (tested: 100 nM)”.

For the molecule B7, the binding result is given as “no binding (tested: 100 nM)”.

With B8, the binding result is on record as “no binding (tested: 100 nM)”.

In the case of B9, the binding result was “no binding (tested: 100 nM)”.

A further assay shares this target. The assay can be described thus: flow cytometry on HEK293F cells transiently expressing full-length mouse CSF-1R (IRES-EGFP vector), IgG at 100 nM, Alexa Fluor 647 anti-human Fc detection. As to the method: as §1
Consider B1, for which the “percent of cells in the upper right quadrant (APC Ab binding positive, FITC Ag display positive)” value was found to be 0.081%.

As to B2, the “percent of cells in the upper right quadrant (APC Ab binding positive, FITC Ag display positive)” value was 0.77%.

As for B3, the “percent of cells in the upper right quadrant (APC Ab binding positive, FITC Ag display positive)” value was determined as 3.71%.

The next assay concerns the target T3, full-length monkey CSF-1R (RefSeq ID …). The assay can be described thus: flow cytometry on HEK293F cells transiently expressing full-length monkey CSF-1R (IRES-EGFP vector), IgG at 100 nM, Alexa Fluor 647 anti-human Fc detection. The procedure:
as §1
As for B1, the “percent of cells in the upper right quadrant (APC Ab binding positive, FITC Ag display positive)” value stood at 32.6%.

Take B3: the “percent of cells in the upper right quadrant (APC Ab binding positive, FITC Ag display positive)” value was determined as 29.5%.

For B4, the “percent of cells in the upper right quadrant (APC Ab binding positive, FITC Ag display positive)” value came out at 33.7%.

The next assay has as its target T1, full-length mouse CSF-1R (RefSeq ID …). The assay is described as follows: flow cytometry on HEK293F cells transiently expressing full-length mouse CSF-1R (IRES-EGFP vector), Alexa Fluor 647 anti-human Fc detection. As to the method:
as §1
In the case of B1, the binding result is on record as “no binding (tested: 100 nM)”.

Turning to B2, the binding result was “no binding (tested: 100 nM)”.

Take B3: the binding result is recorded as “no binding (tested: 100 nM)”.

For B4, the binding result is on record as “no binding (tested: 100 nM)”.

A further assay has as its target T2, full-length human CSF-1R expressed on …. The assay is described as follows: flow cytometry on HEK293F cells transiently expressing full-length human CSF-1R (IRES-EGFP vector), IgG at 100 nM, Alexa Fluor 647 anti-human Fc detection [Conti.]. The procedure:
as §1
With B5, the “percent of cells in the upper right quadrant (APC Ab binding positive, FITC Ag display positive)” value is 41.3%.

The target in the next assay is T4, human CSF1R-His (Acrobiosystem, CSR-H5228) (human, UniProt P07333 20-512, limits assumed).
T4 construct: Bought protein; The catalogue number is printed only for the SPR assay; also called human CSF-1R protein; not shown: His tag
The assay is described as follows: SPR Biacore T200; IgG captured by anti-human Fc, CSF1R-His as analyte, 1:1 fit. The text has this: The specific binding affinity and kinetics of antibodies against human CSF-1R protein were examined by surface plasmon resonance (SPR) analysis using a Biacore™ T200 instrument (GE, USA) according to the manufacturer’s guidelines. Anti-Human IgG (Fc) antibody (Sigma, I2136) was immobilized on CM5 chips according to the instructions of Amine Coupling kit (GE Biacore #BR-1000-50). The immobilized Anti-Human IgG (Fc) antibody was used to capture the antibodies. […] The running buffer used was 0.01 M HEPES, 0.15 M NaCl, 3 mM EDTA, 0.05% (v/v) surfactant P20, pH 7.4. Corresponding controls were conducted in each case using a blank flow cell with no protein captured for “background” subtraction. The association and dissociation curves were fitted to a 1:1 Langmuir binding model using Biacore T200 Evaluation Software (GE, USA) according to the manufacturer’s guidelines.
Background: Surface plasmon resonance follows binding to a sensor surface in real time, without labels.
Regarding B1, the affinity, expressed as Kd, was 35.5 nM.

In the case of B5, binding was characterised by a dissociation constant (Kd) of 9.86 nM.

The molecule B2 showed a Kd of 23.6 nM.

B6 returned a Kd of 3.18 nM.

With B3, the Kd stood at 0.6 nM.

Molecule B7 registered a Kd of 3.51 nM.

The molecule B4 yielded a Kd of 1.61 nM.

B8 gave a Kd of 0.67 nM.

The term Kd denotes the constant that tells how readily two partners part at equilibrium.
